For test [1], the target named is T1, DL3W34, human DLL4 ECD (Ser27-Pro524), C-10xHis (human, UniProt Q9NR61 27-524).
T1 construct: also called huDLL4; TPP0000494661
The test can be described thus: SPR (ProteOn), antibody captured by anti-Fc; DLL4 at 100 nM and 1000 nM.

Test [2] addresses T2, DL3W37, human DLL3 EGF6 domain, HSA Fusion and C-term 6His tag (human).
T2 construct: Fusion with the C34S variant of human serum albumin at the C-terminus of the DLL3 subdomain, plus 6xHis
In words: MSD plate binding assay on coated DLL3 domain-HSA fusions.

In test [3] the target is T3, DL3W35, extracellular domain of human DLL3 linked to a C-terminal 6xHis-Tag and a linker (human, UniProt Q9NYJ7 27-479).
T3 construct: also called human DLL3 ECD; huDLL3
T3 sequence: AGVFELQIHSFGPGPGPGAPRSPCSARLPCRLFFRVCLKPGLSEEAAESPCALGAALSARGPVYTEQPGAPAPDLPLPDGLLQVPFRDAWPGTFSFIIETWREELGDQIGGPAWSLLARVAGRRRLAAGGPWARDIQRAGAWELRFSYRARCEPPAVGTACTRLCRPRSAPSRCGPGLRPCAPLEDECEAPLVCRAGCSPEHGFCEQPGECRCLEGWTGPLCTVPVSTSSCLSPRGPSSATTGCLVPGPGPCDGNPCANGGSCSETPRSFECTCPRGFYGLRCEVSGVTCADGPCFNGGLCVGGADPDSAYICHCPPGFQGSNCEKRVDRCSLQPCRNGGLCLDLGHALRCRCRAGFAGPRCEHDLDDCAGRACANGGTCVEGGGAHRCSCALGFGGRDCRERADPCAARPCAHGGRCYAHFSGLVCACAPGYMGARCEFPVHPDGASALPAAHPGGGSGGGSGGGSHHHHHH
The test can be described thus: SPR (ProteOn), antibody captured by anti-Fc, DLL3 (DL3W35) titrated.

The target of test [4] is T4, DL3W33, Recombinant Human DLL1 ECD (Ser22-Gly540), -DI-C-6xHis (human, UniProt O00548 22-540).
T4 construct: also called huDLL1; TPP000049465
T4 sequence: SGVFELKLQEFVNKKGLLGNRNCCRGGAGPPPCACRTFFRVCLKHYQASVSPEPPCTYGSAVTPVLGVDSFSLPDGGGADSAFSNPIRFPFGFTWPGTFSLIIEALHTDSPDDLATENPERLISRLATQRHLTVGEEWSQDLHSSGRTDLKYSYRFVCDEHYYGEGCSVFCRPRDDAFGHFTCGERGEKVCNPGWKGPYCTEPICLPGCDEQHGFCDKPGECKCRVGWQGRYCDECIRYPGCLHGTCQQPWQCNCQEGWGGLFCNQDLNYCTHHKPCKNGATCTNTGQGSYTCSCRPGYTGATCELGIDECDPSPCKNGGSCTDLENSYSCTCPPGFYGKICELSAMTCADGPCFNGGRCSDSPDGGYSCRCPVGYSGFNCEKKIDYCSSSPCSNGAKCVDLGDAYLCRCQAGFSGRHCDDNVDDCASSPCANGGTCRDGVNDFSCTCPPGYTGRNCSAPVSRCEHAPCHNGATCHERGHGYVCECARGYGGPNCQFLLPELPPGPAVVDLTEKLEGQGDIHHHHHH
In words: SPR (ProteOn), antibody captured by anti-Fc; DLL1 at 100 nM and 1000 nM.

Test [5] addresses T5, recombinant human DLL3 (Example 9, construct not named) (human, UniProt Q9NYJ7 27-492, limits assumed).
T5 construct: also called DLL3 antigen
T5 sequence: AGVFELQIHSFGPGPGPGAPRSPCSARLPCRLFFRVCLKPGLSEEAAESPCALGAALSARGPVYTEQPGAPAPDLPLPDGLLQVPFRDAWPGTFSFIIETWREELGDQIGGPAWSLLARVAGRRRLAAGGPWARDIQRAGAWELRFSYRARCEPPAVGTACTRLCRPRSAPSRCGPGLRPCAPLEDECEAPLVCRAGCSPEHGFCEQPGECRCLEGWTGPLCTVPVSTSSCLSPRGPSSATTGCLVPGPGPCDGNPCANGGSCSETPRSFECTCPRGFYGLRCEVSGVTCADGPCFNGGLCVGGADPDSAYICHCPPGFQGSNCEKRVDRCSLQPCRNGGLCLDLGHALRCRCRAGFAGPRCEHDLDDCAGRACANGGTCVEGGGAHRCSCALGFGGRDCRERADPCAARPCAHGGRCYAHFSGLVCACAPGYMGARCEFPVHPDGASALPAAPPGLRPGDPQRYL
In words: SPR (Biacore T200), antibody captured by goat anti-Fc on a C1 chip, DLL3 titrated.

For test [6], the target named is T6, human DLL3 on DLL3+ tumor cells (human, UniProt Q9NYJ7 27-618).
T6 sequence: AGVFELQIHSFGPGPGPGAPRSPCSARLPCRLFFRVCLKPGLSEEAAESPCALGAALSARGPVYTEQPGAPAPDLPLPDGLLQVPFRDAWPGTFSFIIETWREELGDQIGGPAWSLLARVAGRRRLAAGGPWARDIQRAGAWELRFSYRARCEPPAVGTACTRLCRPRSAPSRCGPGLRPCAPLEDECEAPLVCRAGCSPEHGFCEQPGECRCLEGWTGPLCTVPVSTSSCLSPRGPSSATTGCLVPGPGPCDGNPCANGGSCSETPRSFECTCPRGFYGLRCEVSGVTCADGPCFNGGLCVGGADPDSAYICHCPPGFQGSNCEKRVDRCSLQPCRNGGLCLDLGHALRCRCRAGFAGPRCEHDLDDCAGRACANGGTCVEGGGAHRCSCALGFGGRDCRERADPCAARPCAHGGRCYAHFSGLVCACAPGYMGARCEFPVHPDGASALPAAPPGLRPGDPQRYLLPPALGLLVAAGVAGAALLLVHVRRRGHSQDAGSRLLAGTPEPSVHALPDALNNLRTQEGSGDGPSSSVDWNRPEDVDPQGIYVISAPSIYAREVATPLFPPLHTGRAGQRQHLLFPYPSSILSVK
In words: cell-based or functional assay.

T1 sequence (Q9NR61 other isoform, or with tags, fused parts or gaps limits assumed): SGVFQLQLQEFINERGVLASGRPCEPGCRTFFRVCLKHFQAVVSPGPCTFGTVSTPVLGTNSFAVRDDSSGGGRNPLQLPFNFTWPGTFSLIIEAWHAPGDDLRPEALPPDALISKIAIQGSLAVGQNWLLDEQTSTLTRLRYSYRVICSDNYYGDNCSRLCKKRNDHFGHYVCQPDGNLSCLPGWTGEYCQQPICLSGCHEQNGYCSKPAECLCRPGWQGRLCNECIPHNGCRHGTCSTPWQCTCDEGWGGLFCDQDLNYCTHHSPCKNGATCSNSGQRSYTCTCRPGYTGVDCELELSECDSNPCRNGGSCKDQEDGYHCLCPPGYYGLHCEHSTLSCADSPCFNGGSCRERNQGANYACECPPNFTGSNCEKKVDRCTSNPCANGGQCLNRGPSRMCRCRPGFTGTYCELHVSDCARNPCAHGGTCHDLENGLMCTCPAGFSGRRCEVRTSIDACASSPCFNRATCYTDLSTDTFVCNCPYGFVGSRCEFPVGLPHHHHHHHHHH
T2 sequence (chain, as listed by the source limits assumed): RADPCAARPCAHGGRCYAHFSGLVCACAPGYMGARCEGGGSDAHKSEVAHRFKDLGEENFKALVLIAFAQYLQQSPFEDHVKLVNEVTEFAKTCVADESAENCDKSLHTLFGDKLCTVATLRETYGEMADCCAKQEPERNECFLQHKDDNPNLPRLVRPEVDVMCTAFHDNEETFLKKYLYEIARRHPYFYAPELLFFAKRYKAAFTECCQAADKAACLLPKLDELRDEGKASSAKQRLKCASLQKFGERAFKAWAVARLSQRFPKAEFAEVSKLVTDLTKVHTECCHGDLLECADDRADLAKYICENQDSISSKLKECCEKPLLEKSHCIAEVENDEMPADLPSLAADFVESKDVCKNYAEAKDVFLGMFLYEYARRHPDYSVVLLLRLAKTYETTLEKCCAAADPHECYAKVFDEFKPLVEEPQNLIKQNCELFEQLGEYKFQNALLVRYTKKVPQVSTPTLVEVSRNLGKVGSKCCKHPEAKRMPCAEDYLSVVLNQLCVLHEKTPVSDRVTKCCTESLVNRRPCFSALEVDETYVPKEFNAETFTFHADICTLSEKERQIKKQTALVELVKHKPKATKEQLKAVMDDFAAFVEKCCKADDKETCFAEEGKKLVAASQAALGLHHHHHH

B1: DL3B569 (Fc fusion)
scFv: DIQMTQSPSSLSASVGDRVTITCRASQGISNYLAWFQQKPGKAPKSLIYAASSLQSGVPSKFSGSGSGTDFTLTISSLQPEDFATYYCQQYNSYPYTFAQGTKLEIKGGSEGKSSGSGSESKSTGGSQVQLVQSGAEVKKPGASVKVSCKASGNTFTNYYIHWVRQAPGQGLEWMGIINPSGGSTSYAQKLQGRMTMTRDTSTSTVYMELSSLRSEDTAVYFCARQGPFIGDAFDIWGQGTMVTVSS
notes: The conflict is not resolved; also called DL3B279 scFv-Fc; not shown: wild-type IgG1 Fc domain
By Kd is commonly meant a measure of binding affinity in units of concentration. For the molecule B1, the binding result is “no binding (tested: 1000 nM)” in test [1], “binds” in test [2] and “no binding (tested: 1000 nM)” in test [4]. In test [3], binding was put at a Kd of 0.147 nM.

B2: DL3B570 (Fc fusion)
scFv: EIVLTQSPGTLSLSPGERATLSCRASQSVSRSYLAWYQQKPGQAPRFLIYGASSRATGIPDRFSGSGSGTDFTLTISRLEPEDFAVYYCQQYGTSPITFGQGTRLEIKGGSEGKSSGSGSESKSTGGSQVQLQESGPGLVKPSETLSLSCTVSGDSIRSYYWSWIRQPPGKGLEWIGYIYYSGTTNYKSSLKSRVTISLDTSKKQFSLNLDSVTAADTAVYYCARIGPAGFYFDYWGQGTLVTVSS
notes: also called DL3B332 scFv-Fc; not shown: wild-type IgG1 Fc domain
On to B2, for which the binding result in test [1] was “no binding (tested: 1000 nM)”; in test [2], “binds”; in test [4], “no binding (tested: 1000 nM)”. In test [3], this molecule displayed a dissociation constant Kd of 0.0668 nM.

B3: DL3B582 (bispecific antibody)
heavy: QVQLVQSGAEVKKPGASVKVSCKASGNTFTNYYIHWVRQAPGQGLEWMGIINPSGGSTSYAQKLQGRMTMTRDTSTSTVYMELSSLRSEDTAVYFCARQGPFIGDAFDIWGQGTMVTVSSASTKGPSVFPLAPSSKSTSGGTAALGCLVKDYFPEPVTVSWNSGALTSGVHTFPAVLQSSGLYSLSSVVTVPSSSLGTQTYICNVNHKPSNTKVDKKVEPKSCDKTHTCPPCPAPEAAGGPSVFLFPPKPKDTLMISRTPEVTCVVVSVSHEDPEVKFNWYVDGVEVHNAKTKPREEQYNSTYRVVSVLTVLHQDWLNGKEYKCKVSNKALPAPIEKTISKAKGQPREPQVYVLPPSREEMTKNQVSLLCLVKGFYPSDIAVEWESNGQPENNYLTWPPVLDSDGSFFLYSKLTVDKSRWQQGNVFSCSVMHEALHNHYTQKSLSLSPG
light: DIQMTQSPSSLSASVGDRVTITCRASQGISNYLAWFQQKPGKAPKSLIYAASSLQSGVPSKFSGSGSGTDFTLTISSLQPEDFATYYCQQYNSYPYTFAQGTKLEIKRTVAAPSVFIFPPSDEQLKSGTASVVCLLNNFYPREAKVQWKVDNALQSGNSQESVTEQDSKDSTYSLSSTLTLSKADYEKHKVYACEVTHQGLSSPVTKSFNRGEC
scFv: DIQMTQSPSSLSASVGDRVTITCRARQSIGTAIHWYQQKPGKAPKLLIKYASESISGVPSRFSGSGSGTDFTLTISSLQPEDFATYYCQQSGSWPYTFGQGTKLEIKGGSEGKSSGSGSESKSTGGSEVQLVESGGGLVKPGGSLRLSCAASGFTFSRYNMNWVRQAPGKGLEWVSSISTSSNYIYYADSVKGRFTFSRDNAKNSLDLQMSGLRAEDTAIYYCTRGWGPFDYWGQGTLVTVSSEPKSSDKTHTCPPCPAPEAAGGPSVFLFPPKPKDTLMISRTPEVTCVVVSVSHEDPEVKFNWYVDGVEVHNAKTKPREEQYNSTYRVVSVLTVLHQDWLNGKEYKCKVSNKALPAPIEKTISKAKGQPREPQVYVYPPSREEMTKNQVSLTCLVKGFYPSDIAVEWESNGQPENNYKTTPPVLDSDGSFALVSKLTVDKSRWQQGNVFSCSVMHEALHNHYTQKSLSLSPG
notes: DLL3 arm: DL3B279-Fab-Fc; CD3 arm: CD3W245-LH-scFv-Fc; IgG1 with L234A/L235A/D265S and heterodimerization mutations; also called CD3W245-LH-scFv; DL3B279-Fab
On to B3, for which, in test [5], the Kd was found to be 0.016 nM. Also, in test [6], the “Cytotoxicity (% Lysis), G361, whole PBMCs, 1:1 ET ratio, 30 nM” value stood at 98.9%; the “Cytotoxicity (% Lysis), HCC1833, whole PBMCs, 1:1 ET ratio, 30 nM” value is 93.7%; the “Cytotoxicity (% Lysis), SHP-77, whole PBMCs, 1:1 ET ratio, 30 nM” value was determined as 87.3%.

B4: DL3B583 (bispecific antibody)
heavy: QVQLVQSGAEVKKPGASVKVSCKASGNTFTNYYIHWVRQAPGQGLEWMGIINPSGGSTSYAQKLQGRMTMTRDTSTSTVYMELSSLRSEDTAVYFCARQGPFIGDAFDIWGQGTMVTVSSASTKGPSVFPLAPSSKSTSGGTAALGCLVKDYFPEPVTVSWNSGALTSGVHTFPAVLQSSGLYSLSSVVTVPSSSLGTQTYICNVNHKPSNTKVDKKVEPKSCDKTHTCPPCPAPEAAGGPSVFLFPPKPKDTLMISRTPEVTCVVVSVSHEDPEVKFNWYVDGVEVHNAKTKPREEQYNSTYRVVSVLTVLHQDWLNGKEYKCKVSNKALPAPIEKTISKAKGQPREPQVYVLPPSREEMTKNQVSLLCLVKGFYPSDIAVEWESNGQPENNYLTWPPVLDSDGSFFLYSKLTVDKSRWQQGNVFSCSVMHEALHNHYTQKSLSLSPG
light: DIQMTQSPSSLSASVGDRVTITCRASQGISNYLAWFQQKPGKAPKSLIYAASSLQSGVPSKFSGSGSGTDFTLTISSLQPEDFATYYCQQYNSYPYTFAQGTKLEIKRTVAAPSVFIFPPSDEQLKSGTASVVCLLNNFYPREAKVQWKVDNALQSGNSQESVTEQDSKDSTYSLSSTLTLSKADYEKHKVYACEVTHQGLSSPVTKSFNRGEC
scFv: EVQLVESGGGLVKPGGSLRLSCAASGFTFSRYNMNWVRQAPGKGLEWVSSISTSSNYIYYADSVKGRFTFSRDNAKNSLDLQMSGLRAEDTAIYYCTRGWGPFDYWGQGTLVTVSSGGSEGKSSGSGSESKSTGGSDIQMTQSPSSLSASVGDRVTITCRARQSIGTAIHWYQQKPGKAPKLLIKYASESISGVPSRFSGSGSGTDFTLTISSLQPEDFATYYCQQSGSWPYTFGQGTKLEIKEPKSSDKTHTCPPCPAPEAAGGPSVFLFPPKPKDTLMISRTPEVTCVVVSVSHEDPEVKFNWYVDGVEVHNAKTKPREEQYNSTYRVVSVLTVLHQDWLNGKEYKCKVSNKALPAPIEKTISKAKGQPREPQVYVYPPSREEMTKNQVSLTCLVKGFYPSDIAVEWESNGQPENNYKTTPPVLDSDGSFALVSKLTVDKSRWQQGNVFSCSVMHEALHNHYTQKSLSLSPG
notes: DLL3 arm: DL3B279-Fab-Fc; CD3 arm: CD3W245-HL-scFv-Fc; IgG1 with L234A/L235A/D265S and heterodimerization mutations; also called CD3W245-HL-scFv; DL3B279-Fab
As for B4, the Kd in test [5] was 0.016 nM. Moreover, in test [6], the “Cytotoxicity (% Lysis), G361, whole PBMCs, 1:1 ET ratio, 30 nM” value is 98.9%; the “Cytotoxicity (% Lysis), HCC1833, whole PBMCs, 1:1 ET ratio, 30 nM” value was found to be 88.4%; the “Cytotoxicity (% Lysis), SHP-77, whole PBMCs, 1:1 ET ratio, 30 nM” value amounted to 99.8%.

B5: DL3B572 (Fc fusion)
scFv: EVQLVQSGAEVKKPGASVKVSCKASGYTFTTYYIHWVRQAPGQGLEWMGIIDPSGGRTSYAQKFLGRVTMTRDTSTSTVYMELRSLRSEDTAVYYCARGGDGTWYYGMDVWGQGTTVTVSSGGSEGKSSGSGSESKSTGGSDIVMTQSPSFLSASVGDRVTITCRASQGISNYLAWYQQKPGKAPKLLIYAASTLQSGVPSRFSGSGSGTEFTLTISSLQPEDFATYYCQQLNSYPLTFGGGTKVEIK
notes: also called DL3B409 scFv-Fc; not shown: wild-type IgG1 Fc domain
With B5, the binding result in test [1] and in test [4] was “no binding (tested: 1000 nM)” each time. The molecule also registered an equilibrium dissociation constant (Kd) in test [3] of 2.32 nM.

Source of the values: patent US20240025992A1 (Janssen / Centocor, published 2024).
